This data set deals with the molecule itself. Briefly: SEC; Superdex 200 Increase 10/300 GL, 25 mM HEPES pH 7.5, 100 mM NaCl, 0.03% DDM; elution volume compared with the trimeric molecular weight. In general terms: SEC sorts molecules by how far they enter the pores of the column.

B1: MdtF, multidrug efflux HAE-RND transporter from Escherichia coli (natural protein)
chain: MANYFIDRPVFAWVLAIIMMLAGGLAIMNLPVAQYPQIAPPTITVSATYPGADAQTVEDSVTQVIEQNMNGLDGLMYMSSTSDAAGNASITLTFETGTSPDIAQVQVQNKLQLAMPSLPEAVQQQGISVDKSSSNILMVAAFISDNGSLNQYDIADYVASNIKDPLSRTAGVGSVQLFGSEYAMRIWLDPQKLNKYNLVPSDVISQIKVQNNQISGGQLGGMPQAADQQLNASIIVQTRLQTPEEFGKILLKVQQDGSQVLLRDVARVELGAEDYSTVARYNGKPAAGIAIKLAAGANALDTSRAVKEELNRLSAYFPASLKTVYPYDTTPFIEISIQEVFKTLVEAIILVFLVMYLFLQNFRATIIPTIAVPVVILGTFAILSAVGFTINTLTMFGMVLAIGLLVDDAIVVVENVERVIAEDKLPPKEATHKSMGQIQRALVGIAVVLSAVFMPMAFMSGATGEIYRQFSITLISSMLLSVFVAMSLTPALCATILKAAPEGGHKPNALFARFNTLFEKSTQHYTDSTRSLLRCTGRYMVVYLLICAGMAVLFLRTPTSFLPEEDQGVFMTTAQLPSGATMVNTTKVLQQVTDYYLTKEKDNVQSVFTVGGFGFSGQGQNNGLAFISLKPWSERVGEENSVTAIIQRAMIALSSINKAVVFPFNLPAVAELGTASGFDMELLDNGNLGHEKLTQARNELLSLAAQSPNQVTGVRPNGLEDTPMFKVNVNAAKAEAMGVALSDINQTISTAFGSSYVNDFLNQGRVKKVYVQAGTPFRMLPDNINQWYVRNASGTMAPLSAYSSTEWTYGSPRLERYNGIPSMEILGEAAAGKSTGDAMKFMADLVAKLPAGVGYSWTGLSYQEALSSNQAPALYAISLVVVFLALAALYESWSIPFSVMLVVPLGVVGALLATDLRGLSNDVYFQVGLLTTIGLSAKNAILIVEFAVEMMQKEGKTPIEAIIEAARMRLRPILMTSLAFILGVLPLVISHGAGSGAQNAVGTGVMGGMFAATVLAIYFVPVFFVVVEHLFARFKKA
notes: MdtF, RND inner membrane transporter of the MdtEF system, Escherichia coli; gene PCR amplified from E. coli genomic DNA, cloned into pET21a(+) between NdeI and XhoI; wild type; the whole gene appears to have been cloned. ~110 kDa band on SDS-PAGE; source: E. coli BL21ΔacrB acrD mdtABC (NKE1317), purified (2% DDM extraction, Ni-NTA, SEC in 0.03% DDM)
Usually stoichiometry N stands for a count of units in the complex or per binding partner. As to B1, the “stoichiometry N” value was 3.

B2: MdtB, multidrug efflux HAE-RND transporter from Escherichia coli (natural protein)
chain: MQVLPPSSTGGPSRLFIMRPVATTLLMVAILLAGIIGYRALPVSALPEVDYPTIQVVTLYPGASPDVMTSAVTAPLERQFGQMSGLKQMSSQSSGGASVITLQFQLTLPLDVAEQEVQAAINAATNLLPSDLPNPPVYSKVNPADPPIMTLAVTSTAMPMTQVEDMVETRVAQKISQISGVGLVTLSGGQRPAVRVKLNAQAIAALGLTSETVRTAITGANVNSAKGSLDGPSRAVTLSANDQMQSAEEYRQLIIAYQNGAPIRLGDVATVEQGAENSWLGAWANKEQAIVMNVQRQPGANIISTADSIRQMLPQLTESLPKSVKVTVLSDRTTNIRASVDDTQFELMMAIALVVMIIYLFLRNIPATIIPGVAVPLSLIGTFAVMVFLDFSINNLTLMALTIATGFVVDDAIVVIENISRYIEKGEKPLAAALKGAGEIGFTIISLTFSLIAVLIPLLFMGDIVGRLFREFAITLAVAILISAVVSLTLTPMMCARMLSQESLRKQNRFSRASEKMFDRIIAAYGRGLAKVLNHPWLTLSVALSTLLLSVLLWVFIPKGFFPVQDNGIIQGTLQAPQSSSFANMAQRQRQVADVILQDPAVQSLTSFVGVDGTNPSLNSARLQINLKPLDERDDRVQKVIARLQTAVDKVPGVDLFLQPTQDLTIDTQVSRTQYQFTLQATSLDALSTWVPQLMEKLQQLPQLSDVSSDWQDKGLVAYVNVDRDSASRLGISMADVDNALYNAFGQRLISTIYTQANQYRVVLEHNTENTPGLAALDTIRLTSSDGGVVPLSSIAKIEQRFAPLSINHLDQFPVTTISFNVPDNYSLGDAVQAIMDTEKTLNLPVDITTQFQGSTLAFQSALGSTVWLIVAAVVAMYIVLGILYESFIHPITILSTLPTAGVGALLALLIAGSELDVIAIIGIILLIGIVKKNAIMMIDFALAAEREQGMSPREAIYQACLLRFRPILMTTLAALLGALPLMLSTGVGAELRRPLGIGMVGGLIVSQVLTLFTTPVIYLLFDRLALWTKSRFARHEEEA
notes: MdtB, RND inner membrane transporter of the MdtABC system, Escherichia coli; gene PCR amplified from E. coli genomic DNA, cloned into pET21a(+) between NdeI and XhoI; wild type; the whole gene appears to have been cloned. ~110 kDa band on SDS-PAGE; also called homotrimeric MdtB; source: E. coli BL21ΔacrB acrD mdtABC (NKE1317), purified (2% DDM extraction, Ni-NTA, SEC in 0.03% DDM); for cryo-EM …
B2: the “stoichiometry N” value stood at 3.

The record behind these values is PMC12802153, “Cryo-EM reveals the structural heterogeneity and conformational flexibility of multidrug efflux pumps MdtB and MdtF” (mBio, 2025).
